{"source": "patent US11844813", "about": "(ST ANNA KINDERKREBSFORSCHUNG, dated 2023)", "key": {"[1]": {"molecular_target": "T1, Human His-tagged RBP4 (residues 19-201), soluble (human, UniProt P02753 19-201)", "test": "yeast surface display, flow cytometry: soluble His-tagged RBP4 titrated on yeast displaying the binder, anti-penta-His detection, with 5 µM A1120", "excerpt": "(§1) \"a\" can be part of a soluble protein (secreted or exogenously added) or of a transmembrane construct and \"c\" can be part of a signal transducing construct (shown in A and B). Of course, \"a\" and \"c\" can be integrated in the constructs vice versa (not shown). There are many more possible arrangements (not shown). […] RBP4-binding was detected with an anti-penta-His antibody and subsequently analyzed by flow cytometry."}, "[2]": {"molecular_target": "T1, Human His-tagged RBP4 (residues …)", "test": "yeast surface display, flow cytometry: soluble His-tagged RBP4 titrated on yeast displaying the binder, anti-penta-His detection, with 5 µM A1120; mean of three", "excerpt": "as §1"}, "[3]": {"molecular_target": "T1, Human His-tagged RBP4 (residues …)", "test": "ITC; ratio of the KD without to the KD with A1120", "experimental": "(§2) The samples were centrifuged (17000 g, 10 min, 20° C.) and dialysed against the same buffer (PBS). RBP4 protein solution was applied to the sample cell and the respective RBP4 binding interaction partners were titrated with varying intervals. Different concentrations both for RBP4 and RBP4 binding interaction partners were used. […] Data analysis was performed with the MicroCal PEAQ-ITC analysis software and the resulting data were fitted to a one-set-of-sites binding model. […] The integrated data were fitted to one-set-of-sites binding model to calculate the K_D values in FIG. 18."}, "[4]": {"molecular_target": "T1, Human His-tagged RBP4 (residues …)", "test": "SPR, -A1120; mean ± S.D., n=4", "experimental": "(§3) The antigen (RBP4) was coated onto a CM5 chip (GE Healthcare) and incubated with various concentrations of lipocalin-fold binding interaction partner solution in HBS-EP (GE Healthcare), followed by a dissociation phase in HBS-EP. […] Finally, K_d values (dissociation constants) were obtained by steady-state analysis."}, "[5]": {"molecular_target": "T1, Human His-tagged RBP4 (residues …)", "test": "ITC, -A1120; mean ± S.D., n=4", "experimental": "as §2"}, "[6]": {"molecular_target": "T1, Human His-tagged RBP4 (residues …)", "test": "SPR, + A1120; mean ± S.D., n=4", "experimental": "as §3"}, "[7]": {"molecular_target": "T1, Human His-tagged RBP4 (residues …)", "test": "SPR (Biacore T200), single-cycle kinetics, RBP4 immobilised on a CM5 chip, RS3 injected at 6.25-100 nM, with 5 µM A1120; steady-state analysis; one representative experiment of four", "experimental": "(§4) Applied concentrations of RS3 are indicated in the plots. […] Figure 17B: Figure 17C:\nas §3"}, "[8]": {"molecular_target": "T1, Human His-tagged RBP4 (residues …)", "test": "ITC, + A1120; mean ± S.D., n=4", "experimental": "as §2"}, "[9]": {"molecular_target": "T1, Human His-tagged RBP4 (residues …)", "test": "SPR (Biacore T200), single-cycle kinetics, RBP4 immobilised on a CM5 chip, RS3 injected at 937.5-15000 nM, without A1120; steady-state analysis; one representative experiment of four", "experimental": "as §4, §3"}, "[10]": {"molecular_target": "T1, Human His-tagged RBP4 (residues …)", "test": "yeast display, + A1120; mean ± S.D., n=3"}, "[11]": {"molecular_target": "T1, Human His-tagged RBP4 (residues …)", "test": "yeast surface display, flow cytometry: soluble His-tagged RBP4 titrated on yeast displaying the binder, anti-penta-His detection, with 5 µM A1120; mean of three", "experimental": "All small molecules were present at a concentration of 5 µM. RBP4-binding was detected with an anti-penta-His antibody and subsequently analyzed by flow cytometry.", "remark": "listed apart in the source"}}}
{"binder": "RS2, rcSso7d-based lipocalin-fold binding interaction partner, displayed on the surface of yeast (designed binder, not shown: Yeast display carrier of pCTCON2 (Aga2p, HA tag, linker, C-terminal c-myc tag)) ATVKLTYQGEEKQVDISKIKRVARYGQGIYFDYGEGGGAWGYGSVSEKDAPKELLQMLEKQ", "values": [{"measurement": "EC50 (read off the curve)", "setting": "[1]", "value": "~3", "unit": "nM"}, {"measurement": "Kd", "setting": "[2]", "value": 2.9, "unit": "nM"}]}
{"binder": "RS1, rcSso7d-based lipocalin-fold binding interaction partner, displayed on the surface of yeast (designed binder, not shown: Yeast display carrier of pCTCON2 (Aga2p, HA tag, linker, C-terminal c-myc tag)) ATVKFTYQGEEEQVDISKIKKVARYGQNIYFSYDEGGGAWDYGGVSEKDAPKELLQMLEKQ", "values": [{"measurement": "EC50 (read off the curve)", "setting": "[1]", "value": "1 to 2", "unit": "nM"}, {"measurement": "Kd", "setting": "[2]", "value": 1.5, "unit": "nM"}]}
{"binder": "RS3, rcSso7d-based RBP4 binding interaction partner, soluble protein (designed binder, Expressed in E. coli as His6-SUMO fusion; Monomeric by SEC) ATVKLTYQGEEKQVDISKIKRVARYGQNIYFSYDEGGGAYDYGAVSEKDAPKELLQMLEKQ", "values": [{"measurement": "KD,-A1120 / KD,+A1120", "setting": "[3]", "value": 384}, {"measurement": "Kd", "setting": "[4]", "value": 4950, "unit": "nM"}, {"measurement": "Kd", "setting": "[5]", "value": 2690, "unit": "nM"}, {"measurement": "Kd", "setting": "[6]", "value": 9, "unit": "nM"}, {"measurement": "Kd", "setting": "[7]", "value": 11, "unit": "nM"}, {"measurement": "Kd", "setting": "[8]", "value": 7, "unit": "nM"}, {"measurement": "Kd", "setting": "[9]", "value": 6130, "unit": "nM"}]}
{"binder": "RS3, rcSso7d-based lipocalin-fold binding interaction partner, displayed on the surface of yeast (designed binder, not shown: Yeast display carrier of pCTCON2 (Aga2p, HA tag, linker, C-terminal c-myc tag)) ATVKLTYQGEEKQVDISKIKRVARYGQNIYFSYDEGGGAYDYGAVSEKDAPKELLQMLEKQ", "values": [{"measurement": "Kd", "setting": "[10]", "value": 13, "unit": "nM"}, {"measurement": "EC50 (read off the curve)", "setting": "[1]", "value": "~10", "unit": "nM"}, {"measurement": "Kd", "setting": "[2]", "value": 11.5, "unit": "nM"}, {"measurement": "EC50 (read off the curve)", "setting": "[11]", "value": "~20", "unit": "nM"}]}
{"binder": "RS4, rcSso7d-based lipocalin-fold binding interaction partner, displayed on the surface of yeast (designed binder, not shown: Yeast display carrier of pCTCON2 (Aga2p, HA tag, linker, C-terminal c-myc tag)) ATAKFTYQGEEKQVDISKIKRVARYGQGIYFSYDEGGGAYGYGSVSEKDAPKELLQMLEKQ", "values": [{"measurement": "Kd", "setting": "[2]", "value": 47.6, "unit": "nM"}]}
{"binder": "RS5, rcSso7d-based RBP4 binding interaction partner, soluble protein (designed binder, Expressed in E. coli as His6-SUMO fusion; Monomeric by SEC) ATVKFTYQGEEKQVDISKIKRVARYGQGIYFDYGEGGGAWGYGSVSEEDAPKELLQMLEKQ", "values": [{"measurement": "KD,-A1120 / KD,+A1120", "setting": "[3]", "value": 222}, {"measurement": "Kd", "setting": "[4]", "value": 11000, "unit": "nM"}, {"measurement": "Kd", "setting": "[5]", "value": 3780, "unit": "nM"}, {"measurement": "Kd", "setting": "[6]", "value": 38, "unit": "nM"}, {"measurement": "Kd", "setting": "[8]", "value": 17, "unit": "nM"}]}
{"binder": "RS5, rcSso7d-based lipocalin-fold binding interaction partner, displayed on the surface of yeast (designed binder, not shown: Yeast-display carrier of the pCTCON2 construct (Aga2p anchor, HA tag, linker, c-myc tag)) ATVKFTYQGEEKQVDISKIKRVARYGQGIYFDYGEGGGAWGYGSVSEEDAPKELLQMLEKQ", "values": [{"measurement": "Kd", "setting": "[10]", "value": 80, "unit": "nM"}, {"measurement": "Kd", "setting": "[2]", "value": 69.5, "unit": "nM"}]}
{"binder": "RF2, FN3-based lipocalin-fold binding interaction partner, displayed on the surface of yeast (designed binder, not shown: Yeast-display carrier of the pCTCON2 construct (Aga2p anchor, HA tag, linker, c-myc tag)) VSDVPRDLEVVAATPTSLLISWYYPNASHAGYYRITYGETGGNSPVQEFTVPFSIRYTIATISGLKPGVDYTITVYAVTDYAYYYRLSEPISINYRTEIDKPSQ", "values": [{"measurement": "Kd", "setting": "[10]", "value": 65, "unit": "nM"}, {"measurement": "EC50 (read off the curve)", "setting": "[1]", "value": "~40", "unit": "nM"}, {"measurement": "Kd", "setting": "[2]", "value": 41.8, "unit": "nM"}]}
{"binder": "RF1, FN3-based lipocalin-fold binding interaction partner, displayed on the surface of yeast (designed binder, not shown: Yeast-display carrier of the pCTCON2 construct (Aga2p anchor, HA tag, linker, c-myc tag)) VSDVPRDLEVVAATPTSLLISWYYPNASHAGYYRVTYGETGGNSPVQEFTVPFSIRYTIATISGLKPGVDHTITVYAVTDYAYYYRSSEPISINYRTEIDKPSQ", "values": [{"measurement": "Kd", "setting": "[2]", "value": 169, "unit": "nM"}, {"measurement": "EC50 (read off the curve)", "setting": "[11]", "value": "~6", "unit": "nM"}]}
{"binder": "RF2, FN3-based RBP4 binding interaction partner, soluble protein (designed binder, Expressed in E. coli as His6-SUMO fusion; Monomeric by SEC) VSDVPRDLEVVAATPTSLLISWYYPNASHAGYYRITYGETGGNSPVQEFTVPFSIRYTIATISGLKPGVDYTITVYAVTDYAYYYRLSEPISINYRTEIDKPSQ", "values": [{"measurement": "KD,-A1120 / KD,+A1120", "setting": "[3]", "value": 16}, {"measurement": "Kd", "setting": "[5]", "value": 4380, "unit": "nM"}, {"measurement": "Kd", "setting": "[8]", "value": 279, "unit": "nM"}]}
{"binder": "RF3, FN3-based lipocalin-fold binding interaction partner, displayed on the surface of yeast (designed binder, not shown: Yeast-display carrier of the pCTCON2 construct (Aga2p anchor, HA tag, linker, c-myc tag)) VSDVPRDLEVVAATPTSLLISWYYPNASHAGYYRITYGETGGNSPVQEFTVPFSIRYTIATISGLKPGVDYTITVYAVTASCQYCSYPISINYRTEIDKPSQ", "values": [{"measurement": "Kd", "setting": "[2]", "value": 67, "unit": "nM"}]}
